Results: patent US20160185837A1 (Medimmune Limited, priority 2013, published 2016)

T1: mouse GIP receptor (mGIPr) (Mus musculus, UniProt Q0P543)
T1 construct: expressed in transfected cells; host or cells: HEK293s or CHO cells
T1 sequence (Q0P543 19-460): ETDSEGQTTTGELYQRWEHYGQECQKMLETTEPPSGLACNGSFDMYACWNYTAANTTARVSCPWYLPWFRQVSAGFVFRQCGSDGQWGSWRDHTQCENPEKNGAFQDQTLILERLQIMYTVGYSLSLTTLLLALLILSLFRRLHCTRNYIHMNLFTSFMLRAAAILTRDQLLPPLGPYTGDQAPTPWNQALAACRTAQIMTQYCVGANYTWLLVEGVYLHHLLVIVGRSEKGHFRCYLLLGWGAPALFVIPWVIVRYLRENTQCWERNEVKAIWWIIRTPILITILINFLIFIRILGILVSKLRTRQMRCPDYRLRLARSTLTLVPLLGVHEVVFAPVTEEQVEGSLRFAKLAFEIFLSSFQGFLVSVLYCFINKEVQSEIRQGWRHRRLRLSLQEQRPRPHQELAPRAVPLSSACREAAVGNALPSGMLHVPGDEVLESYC

T2: rat GIP receptor (rGIPr) (Rattus norvegicus, UniProt P43219)
T2 construct: expressed in transfected cells; host or cells: HEK293s or CHO cells
T2 sequence (P43219 19-455): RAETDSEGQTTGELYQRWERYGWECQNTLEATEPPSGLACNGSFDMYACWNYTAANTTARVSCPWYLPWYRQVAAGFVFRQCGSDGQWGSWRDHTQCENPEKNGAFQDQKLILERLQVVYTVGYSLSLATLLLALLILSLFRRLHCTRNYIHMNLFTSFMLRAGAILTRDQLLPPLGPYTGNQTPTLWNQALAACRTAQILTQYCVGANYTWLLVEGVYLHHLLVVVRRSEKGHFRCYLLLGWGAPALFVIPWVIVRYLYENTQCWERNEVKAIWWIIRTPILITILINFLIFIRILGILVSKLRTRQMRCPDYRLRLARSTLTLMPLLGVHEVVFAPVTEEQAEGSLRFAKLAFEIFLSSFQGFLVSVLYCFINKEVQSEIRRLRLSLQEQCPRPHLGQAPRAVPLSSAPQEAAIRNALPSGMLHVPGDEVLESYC


Tests used:
[1] = target: T1, mouse GIP receptor (mGIPr); test: BSA-cAMP assay, cells expressing mouse GIP receptor; type: cell-based
Summary of the method: (§1)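 EC50 is the midpoint of an unconstrained 4-parameter logistic fit to HTRF cAMP data, expressed as percent of maximal native agonist response, from two separate occasions. Rodent (mouse, rat) GLP-1R- or GIPR-expressing cells were incubated with compound 30 min at room temperature in 0.1% BSA medium, in duplicate.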

PK by Fc Detection = test: PK by Fc Detection
Description: Table printed on a drawing sheet, FIG. 3A-C
Title: PK by Fc Detection
Circles: IV injection of 1 mg/kg, squares: subcutaneous injection of 1 mg/kg. Pharmacokinetic parameters Cmax, bioavailability (F %) and half-life T1/2 are compared in panel C.
Circles: IV injection of 1 mg/kg, squares: subcutaneous injection of 1 mg/kg. Pharmacokinetic parameters Cmax, bioavailability (F %) and half life T112 are compared in panel F.
First reader's note: Panel C of FIG. 3A-C; the title 'PK by Fc Detection' is printed over the whole sheet, including plot panels A and B.

blood glucose = test: Oral glucose tolerance test (OGTT) in mouse model; type: in vivo, C57 male mice
Description: The effect of IP088 on glycemic control in a mouse model was carried out as follows. Twenty-one (21) male C57 male mice (11-12 weeks old) were purchased from Taconic, Denmark and acclimatized for 3 weeks before experimentation. Throughout the acclimatization period the animals are offered ad libitum chow and tap water. Mice were single housed one week prior to the study. On day 1 of the study animals were randomized into 4 groups based on body weight (n=5-6 per group), and were administered the following compounds subcutaneously four hours (IP088, IP040, and GLP1a-Fc) or two hours (liraglutide) prior to each oral glucose tolerance test:
Group 6: Liraglutide (GLP-1 analog, Novo Nordisk) 0.2 mg/kg S.C.
Group 7: GLP1a-Fc (GLP-1 agonist) 1 mg/kg S.C.
Group 8: IP088 1 mg/kg S.C.
Oral glucose tolerance tests (OGTT) were performed on days 0 and 2, both after a 4-hour fast. […] Blood glucose was measured from tail vein blood before glucose (at t=−240, −120 and 0 min, baseline) and after glucose administration at t=15, 30, 60 and 120 min. Blood samples (tail vein) were collected into […] heparinized glass capillary tubes and immediately suspended in buffer (0.5 ml of glucose/lactate system solution (EKF-diagnostics, Germany) and analyzed for glucose on the test day using a BIOSEN c-Line glucose meter (EKF-diagnostics, Germany) according to manufacturer's instructions.

rat GIP receptor (rGIPr) = target: T2, rat GIP receptor (rGIPr); test: BSA-cAMP assay, cells expressing rat GIP receptor; type: cell-based
Summary of the method: as §1

[2] = target: T3, human glucagon receptor (GCGr) (Homo sapiens, UniProt P47871); test: BSA-cAMP assay, cells expressing human glucagon receptor; type: cell-based; conditions: Batch 1, read-out: hGCGr cAMP activity EC50
T3 construct: expressed in transfected cells; host or cells: HEK293s or CHO cells
T3 sequence (P47871 26-477): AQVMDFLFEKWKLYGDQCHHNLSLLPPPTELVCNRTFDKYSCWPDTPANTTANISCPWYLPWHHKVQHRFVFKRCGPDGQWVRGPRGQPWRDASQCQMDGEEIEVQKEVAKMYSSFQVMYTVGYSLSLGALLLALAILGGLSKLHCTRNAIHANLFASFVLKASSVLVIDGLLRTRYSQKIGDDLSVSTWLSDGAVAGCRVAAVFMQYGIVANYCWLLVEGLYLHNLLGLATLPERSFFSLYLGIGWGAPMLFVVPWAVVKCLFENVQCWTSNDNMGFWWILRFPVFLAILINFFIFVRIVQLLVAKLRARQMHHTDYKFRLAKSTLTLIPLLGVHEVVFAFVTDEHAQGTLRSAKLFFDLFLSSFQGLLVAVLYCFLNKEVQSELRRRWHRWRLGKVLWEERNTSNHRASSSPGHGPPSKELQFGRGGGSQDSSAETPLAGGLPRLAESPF

potency for GIPr, in words ([1]; mouse receptor)	potency for GIPr, in words (rat GIP receptor (rGIPr); rat receptor)	EC50 ([1]; Batch 1, BSA-cAMP assay, read-out: mGIPr cAMP activity EC50) [nM]	EC50 (rat GIP receptor (rGIPr); Batch 1, BSA-cAMP assay, read-out: rGIPr cAMP activity EC50) [nM]	EC50 [2] [nM]	Molecule	Cmax (PK by Fc Detection) [ng/mL]	F (%) (PK by Fc Detection)	t½ (PK by Fc Detection) [h]	glycemic control in OGTT compared with GLP1a-Fc, in words (blood glucose; 1 mg/kg S.C. each, OGTT days 0 and 2)	glucose lowering effect in OGTT, in words (blood glucose; 1 mg/kg S.C. four hours before OGTT, days 0 and 2, 2 g/kg oral glucose)
relatively lower potency	high potencies	–	–	–	IP088: Fc fusion, IgG1-TM, SEQ ID NO:105; agonist peptide YSEGTFTSDYSKLLEEEAVRLFIEWLVKGP (SEQ ID NO:15) (protein, also: Fc fusion, IgG1-TM) YSEGTFTSDYSKLLEEEAVRLFIEWLVKGPAAAGGSGSTASSGSGSATGGGGAATHTCPPCPAPEF	9800	67	71	superior to GLP1a-Fc at glycemic control	excellent glucose lowering effects
–	–	0.031	0.0099	> 1300	IP367 (protein) YSEGTFTSDYRILKERQAIDEFIAWLLKGGAAAGGSGSTASSGSGSATGGGGAATHTCPPC	–	–	–	–	–
